From patent US20150258192A1, “COMPOSITIONS AND METHODS FOR PREVENTING OR TREATING CHRONIC LUNG ALLOGRAFT DYSFUNCTION (CLAD) AND IDIOPATHIC PULMONARY FIBROSIS (IPF)” (priority 2014, published 2015)
No end group written: not given here.

target: CDK2/cyclinE(h) (Homo sapiens, UniProt P24941); experiment: Kinase Profiling Assay; assay type: biochemical; details: peptide 100 μM
Method in brief: (§1)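 Radiometric filter-binding format: cationic substrate takes up labeled phosphate from ATP unless the inhibitor peptide blocks the kinase. Substrate bound to an anionic filter, scintillation-counted, normalized to 100% activity control. Duplicates; part of a 266-kinase selectivity panel for MK2 peptides.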

Row | Sequence | % activity
1 | FAKLAARLYRKALARQLGVAA [MMI-0300] | 94%
2 | HRRIKAWLKKIKALARQLGVAA (Mammal) [MMI-0500] | 19%
3 | KAFAKLAARLYRKALARQLGVAA [MMI-0400] | 83%

target: CDK5/p35(h) (Homo sapiens, UniProt Q00535); experiment: Kinase Profiling Assay; assay type: biochemical; details: peptide 100 μM
Sequence (Q00535 whole entry): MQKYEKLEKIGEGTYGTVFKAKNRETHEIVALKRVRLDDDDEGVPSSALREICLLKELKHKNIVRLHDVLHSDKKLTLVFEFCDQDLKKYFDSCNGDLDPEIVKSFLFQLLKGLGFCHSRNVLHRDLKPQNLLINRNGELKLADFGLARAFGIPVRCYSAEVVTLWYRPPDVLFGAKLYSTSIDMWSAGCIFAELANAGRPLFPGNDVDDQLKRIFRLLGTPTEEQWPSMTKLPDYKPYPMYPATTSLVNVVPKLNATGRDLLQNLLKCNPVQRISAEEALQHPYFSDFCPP
Sequence (Q15078 whole entry partner): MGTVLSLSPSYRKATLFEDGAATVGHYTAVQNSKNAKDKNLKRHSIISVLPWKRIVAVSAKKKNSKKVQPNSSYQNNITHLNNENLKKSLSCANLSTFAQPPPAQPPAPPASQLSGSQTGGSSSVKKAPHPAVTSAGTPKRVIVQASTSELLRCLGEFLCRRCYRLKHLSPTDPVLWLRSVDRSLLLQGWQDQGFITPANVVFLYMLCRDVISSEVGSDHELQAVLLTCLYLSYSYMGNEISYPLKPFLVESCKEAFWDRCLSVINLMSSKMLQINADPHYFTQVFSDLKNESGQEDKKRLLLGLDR
Method in brief: as §1

Row | Sequence | % activity
4 | FAKLAARLYRKALARQLGVAA [MMI-0300] | 79%
5 | HRRIKAWLKKIKALARQLGVAA (Mammal) [MMI-0500] | 59%
6 | KAFAKLAARLYRKALARQLGVAA [MMI-0400] | 76%
7 | YARAAARQARAKALNRQLGVA (Mammal) [MMI-0200] | 92%

target: T1, EphA1(h) (Homo sapiens, UniProt P21709); experiment: Kinase Profiling Assay; assay type: biochemical; details: peptide 100 μM
T1 sequence (P21709 26-976): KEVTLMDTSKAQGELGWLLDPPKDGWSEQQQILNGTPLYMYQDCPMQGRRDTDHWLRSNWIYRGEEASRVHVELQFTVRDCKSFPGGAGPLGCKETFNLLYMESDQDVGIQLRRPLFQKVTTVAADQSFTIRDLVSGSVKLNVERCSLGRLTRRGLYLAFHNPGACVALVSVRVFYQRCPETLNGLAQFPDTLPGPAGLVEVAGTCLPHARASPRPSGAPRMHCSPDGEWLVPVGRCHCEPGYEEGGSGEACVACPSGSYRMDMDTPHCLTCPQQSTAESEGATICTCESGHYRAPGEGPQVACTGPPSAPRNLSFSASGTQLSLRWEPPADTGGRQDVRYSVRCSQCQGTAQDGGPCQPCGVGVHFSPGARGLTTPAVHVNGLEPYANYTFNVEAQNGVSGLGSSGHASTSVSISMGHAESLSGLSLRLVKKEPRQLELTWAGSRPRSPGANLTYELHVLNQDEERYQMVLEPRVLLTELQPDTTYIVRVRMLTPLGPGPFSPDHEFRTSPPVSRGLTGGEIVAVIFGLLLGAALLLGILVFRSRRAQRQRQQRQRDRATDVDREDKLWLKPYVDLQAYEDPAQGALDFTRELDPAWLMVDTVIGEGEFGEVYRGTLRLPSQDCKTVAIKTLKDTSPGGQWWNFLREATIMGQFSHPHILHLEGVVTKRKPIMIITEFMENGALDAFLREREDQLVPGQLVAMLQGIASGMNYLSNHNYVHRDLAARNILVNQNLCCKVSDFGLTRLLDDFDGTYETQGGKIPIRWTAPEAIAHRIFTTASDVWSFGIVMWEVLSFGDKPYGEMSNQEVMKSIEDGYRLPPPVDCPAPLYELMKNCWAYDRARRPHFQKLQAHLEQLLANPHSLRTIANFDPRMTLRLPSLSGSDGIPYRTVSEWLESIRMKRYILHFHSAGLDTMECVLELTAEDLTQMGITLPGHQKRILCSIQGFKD
Method in brief: as §1

Row | Sequence | % activity
8 | FAKLAARLYRKALARQLGVAA [MMI-0300] | 73%
9 | HRRIKAWLKKIKALARQLGVAA (Mammal) [MMI-0500] | 40%
10 | KAFAKLAARLYRKALARQLGVAA [MMI-0400] | 61%

target: Fes(h) (Homo sapiens, UniProt P07332); experiment: Kinase Profiling Assay; assay type: biochemical; details: peptide 100 μM
Sequence (P07332 whole entry): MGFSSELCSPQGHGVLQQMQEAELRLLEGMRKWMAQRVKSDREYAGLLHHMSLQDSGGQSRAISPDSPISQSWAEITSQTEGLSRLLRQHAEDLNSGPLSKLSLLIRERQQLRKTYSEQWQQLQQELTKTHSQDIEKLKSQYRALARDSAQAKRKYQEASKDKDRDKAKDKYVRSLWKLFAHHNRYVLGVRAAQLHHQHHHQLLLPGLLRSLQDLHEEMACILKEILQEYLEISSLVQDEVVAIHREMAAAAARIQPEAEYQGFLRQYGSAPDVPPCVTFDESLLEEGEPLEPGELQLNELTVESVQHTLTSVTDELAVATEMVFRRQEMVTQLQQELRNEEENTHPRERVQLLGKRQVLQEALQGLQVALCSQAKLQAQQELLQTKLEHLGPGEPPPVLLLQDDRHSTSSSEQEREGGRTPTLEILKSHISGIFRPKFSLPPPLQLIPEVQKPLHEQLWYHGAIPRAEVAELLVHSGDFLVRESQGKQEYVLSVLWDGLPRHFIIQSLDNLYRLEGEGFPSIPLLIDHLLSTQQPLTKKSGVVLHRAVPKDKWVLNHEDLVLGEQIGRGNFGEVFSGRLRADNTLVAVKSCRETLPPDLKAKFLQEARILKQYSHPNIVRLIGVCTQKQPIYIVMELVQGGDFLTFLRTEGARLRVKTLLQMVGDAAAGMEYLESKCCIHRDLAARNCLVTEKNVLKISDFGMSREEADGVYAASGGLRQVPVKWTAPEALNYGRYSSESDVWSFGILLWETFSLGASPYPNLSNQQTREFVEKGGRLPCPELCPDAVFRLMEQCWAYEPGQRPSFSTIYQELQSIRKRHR
Method in brief: as §1

Row | Sequence | % activity
11 | FAKLAARLYRKALARQLGVAA [MMI-0300] | 20%
12 | HRRIKAWLKKIKALARQLGVAA (Mammal) [MMI-0500] | 23%
13 | KAFAKLAARLYRKALARQLGVAA [MMI-0400] | 16%
14 | YARAAARQARAKALNRQLGVA (Mammal) [MMI-0200] | 74%

target: Flt3(D835Y)(h) (Homo sapiens, UniProt P36888, D835Y); experiment: Kinase Profiling Assay; assay type: biochemical; details: peptide 100 μM
Method in brief: as §1

Row | Sequence | % activity
15 | FAKLAARLYRKALARQLGVAA [MMI-0300] | 80%
16 | HRRIKAWLKKIKALARQLGVAA (Mammal) [MMI-0500] | 65%
17 | KAFAKLAARLYRKALARQLGVAA [MMI-0400] | 71%
18 | YARAAARQARAKALARQLGVAA [MMI-0100] | 120%

target: T2, GSK3α(h) (Homo sapiens, UniProt P49840); experiment: Kinase Profiling Assay; assay type: biochemical; details: peptide 100 μM
T2 construct: purchased Millipore
T2 sequence (P49840 whole entry): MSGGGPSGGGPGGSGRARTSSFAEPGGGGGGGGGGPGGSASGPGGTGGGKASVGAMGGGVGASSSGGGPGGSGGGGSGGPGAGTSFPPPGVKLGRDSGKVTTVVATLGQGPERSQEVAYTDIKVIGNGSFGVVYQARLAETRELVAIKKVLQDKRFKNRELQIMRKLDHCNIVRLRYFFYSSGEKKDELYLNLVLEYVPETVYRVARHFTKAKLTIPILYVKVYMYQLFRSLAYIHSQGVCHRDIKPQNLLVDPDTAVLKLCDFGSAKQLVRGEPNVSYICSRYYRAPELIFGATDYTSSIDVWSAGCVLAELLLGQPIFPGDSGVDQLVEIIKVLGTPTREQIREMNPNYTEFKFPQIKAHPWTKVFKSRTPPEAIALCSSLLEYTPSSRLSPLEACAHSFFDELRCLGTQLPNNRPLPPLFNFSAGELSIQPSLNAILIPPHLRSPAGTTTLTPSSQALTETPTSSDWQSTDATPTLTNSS
Method in brief: as §1

Row | Sequence | % activity
19 | FAKLAARLYRKALARQLGVAA [MMI-0300] | 157%
20 | HRRIKAWLKKIKALARQLGVAA (Mammal) [MMI-0500] | 175%
21 | KAFAKLAARLYRKALARQLGVAA [MMI-0400] | 164%

target: T3, Lyn(h) (Homo sapiens, UniProt P07948); experiment: Kinase Profiling Assay; assay type: biochemical; details: peptide 100 μM
T3 construct: purchased Millipore
T3 sequence (P07948 whole entry): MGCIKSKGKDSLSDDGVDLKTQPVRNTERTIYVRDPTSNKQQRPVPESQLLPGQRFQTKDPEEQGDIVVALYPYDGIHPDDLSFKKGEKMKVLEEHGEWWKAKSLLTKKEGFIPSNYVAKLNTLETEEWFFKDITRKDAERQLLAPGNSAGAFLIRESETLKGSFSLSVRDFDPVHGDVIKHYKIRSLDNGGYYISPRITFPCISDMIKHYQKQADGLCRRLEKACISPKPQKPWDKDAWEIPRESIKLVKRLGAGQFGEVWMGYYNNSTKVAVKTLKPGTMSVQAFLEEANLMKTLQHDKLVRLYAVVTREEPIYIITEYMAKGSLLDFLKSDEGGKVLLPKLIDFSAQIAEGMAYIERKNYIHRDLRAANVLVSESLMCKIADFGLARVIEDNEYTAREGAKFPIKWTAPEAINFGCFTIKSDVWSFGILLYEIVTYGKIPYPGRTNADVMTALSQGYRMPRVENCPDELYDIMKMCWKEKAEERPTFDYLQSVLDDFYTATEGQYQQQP
Method in brief: as §1

Row | Sequence | % activity
22 | FAKLAARLYRKALARQLGVAA [MMI-0300] | 69%
23 | HRRIKAWLKKIKALARQLGVAA (Mammal) [MMI-0500] | 31%
24 | KAFAKLAARLYRKALARQLGVAA [MMI-0400] | 3%
25 | YARAAARQARAKALNRQLGVA (Mammal) [MMI-0200] | 98%

target: T4, Met(D1246H)(h) (Homo sapiens, UniProt P08581, D1228H); experiment: Kinase Profiling Assay; assay type: biochemical; details: peptide 100 μM
T4 construct: purchased Millipore
Method in brief: as §1

Row | Sequence | % activity
26 | FAKLAARLYRKALARQLGVAA [MMI-0300] | 125%
27 | HRRIKAWLKKIKALARQLGVAA (Mammal) [MMI-0500] | 150%
28 | KAFAKLAARLYRKALARQLGVAA [MMI-0400] | 68%
29 | YARAAARQARAKALARQLGVAA [MMI-0100] | 99%
30 | YARAAARQARAKALNRQLGVA (Mammal) [MMI-0200] | 139%

target: T5, NLK(h) (Homo sapiens, UniProt Q9UBE8); experiment: Kinase Profiling Assay; assay type: biochemical; details: peptide 100 μM
T5 construct: purchased Millipore
T5 sequence (Q9UBE8 1-527): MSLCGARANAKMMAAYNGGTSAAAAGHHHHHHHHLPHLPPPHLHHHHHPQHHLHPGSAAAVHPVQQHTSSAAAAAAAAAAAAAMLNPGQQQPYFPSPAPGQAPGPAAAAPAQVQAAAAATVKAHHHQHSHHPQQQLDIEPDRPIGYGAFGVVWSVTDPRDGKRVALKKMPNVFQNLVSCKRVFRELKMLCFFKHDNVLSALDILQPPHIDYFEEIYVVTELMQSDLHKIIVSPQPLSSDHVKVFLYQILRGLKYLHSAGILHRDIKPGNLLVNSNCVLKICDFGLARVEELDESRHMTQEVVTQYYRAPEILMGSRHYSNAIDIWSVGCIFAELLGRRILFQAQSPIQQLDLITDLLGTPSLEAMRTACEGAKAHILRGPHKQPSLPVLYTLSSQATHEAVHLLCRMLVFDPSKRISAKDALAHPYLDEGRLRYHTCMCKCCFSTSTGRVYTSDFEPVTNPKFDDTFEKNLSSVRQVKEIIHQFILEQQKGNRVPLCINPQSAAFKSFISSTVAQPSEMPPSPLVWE
Method in brief: as §1

Row | Sequence | % activity
31 | FAKLAARLYRKALARQLGVAA [MMI-0300] | 87%
32 | HRRIKAWLKKIKALARQLGVAA (Mammal) [MMI-0500] | 19%
33 | KAFAKLAARLYRKALARQLGVAA [MMI-0400] | 90%
34 | YARAAARQARAKALARQLGVAA [MMI-0100] | 100%

target: PKCδ(h) (Homo sapiens, UniProt Q05655); experiment: Kinase Profiling Assay; assay type: biochemical; details: peptide 100 μM
Sequence (Q05655 whole entry): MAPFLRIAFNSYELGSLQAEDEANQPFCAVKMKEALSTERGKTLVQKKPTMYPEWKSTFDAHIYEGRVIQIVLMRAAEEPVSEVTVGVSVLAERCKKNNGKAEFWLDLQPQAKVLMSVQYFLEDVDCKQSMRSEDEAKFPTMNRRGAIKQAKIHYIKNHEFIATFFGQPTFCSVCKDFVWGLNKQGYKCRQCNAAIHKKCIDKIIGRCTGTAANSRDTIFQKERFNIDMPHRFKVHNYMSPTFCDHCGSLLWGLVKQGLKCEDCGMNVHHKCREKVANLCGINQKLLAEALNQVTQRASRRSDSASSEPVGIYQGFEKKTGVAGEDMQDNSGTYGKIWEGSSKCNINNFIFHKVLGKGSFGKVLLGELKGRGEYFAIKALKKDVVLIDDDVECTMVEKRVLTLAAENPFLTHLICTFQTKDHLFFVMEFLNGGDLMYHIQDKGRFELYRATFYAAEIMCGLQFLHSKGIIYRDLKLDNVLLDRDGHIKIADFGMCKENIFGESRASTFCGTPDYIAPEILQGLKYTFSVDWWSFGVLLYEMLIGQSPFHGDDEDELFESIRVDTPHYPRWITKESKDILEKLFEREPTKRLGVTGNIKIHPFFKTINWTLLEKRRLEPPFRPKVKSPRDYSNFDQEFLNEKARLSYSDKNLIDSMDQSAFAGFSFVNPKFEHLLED
Method in brief: as §1

Row | Sequence | % activity
35 | FAKLAARLYRKALARQLGVAA [MMI-0300] | 101%
36 | HRRIKAWLKKIKALARQLGVAA (Mammal) [MMI-0500] | 61%
37 | KAFAKLAARLYRKALARQLGVAA [MMI-0400] | 90%
38 | YARAAARQARAKALNRQLGVA (Mammal) [MMI-0200] | 101%

target: Plk3(h) (Homo sapiens, UniProt Q9H4B4); experiment: Kinase Profiling Assay; assay type: biochemical; details: peptide 100 μM
Method in brief: as §1

Row | Sequence | % activity
39 | FAKLAARLYRKALARQLGVAA [MMI-0300] | 127%
40 | HRRIKAWLKKIKALARQLGVAA (Mammal) [MMI-0500] | 122%
41 | KAFAKLAARLYRKALARQLGVAA [MMI-0400] | 129%

target: RIPK2(h) (Homo sapiens, UniProt O43353); experiment: Kinase Profiling Assay; assay type: biochemical; details: peptide 100 μM
Sequence (O43353 whole entry): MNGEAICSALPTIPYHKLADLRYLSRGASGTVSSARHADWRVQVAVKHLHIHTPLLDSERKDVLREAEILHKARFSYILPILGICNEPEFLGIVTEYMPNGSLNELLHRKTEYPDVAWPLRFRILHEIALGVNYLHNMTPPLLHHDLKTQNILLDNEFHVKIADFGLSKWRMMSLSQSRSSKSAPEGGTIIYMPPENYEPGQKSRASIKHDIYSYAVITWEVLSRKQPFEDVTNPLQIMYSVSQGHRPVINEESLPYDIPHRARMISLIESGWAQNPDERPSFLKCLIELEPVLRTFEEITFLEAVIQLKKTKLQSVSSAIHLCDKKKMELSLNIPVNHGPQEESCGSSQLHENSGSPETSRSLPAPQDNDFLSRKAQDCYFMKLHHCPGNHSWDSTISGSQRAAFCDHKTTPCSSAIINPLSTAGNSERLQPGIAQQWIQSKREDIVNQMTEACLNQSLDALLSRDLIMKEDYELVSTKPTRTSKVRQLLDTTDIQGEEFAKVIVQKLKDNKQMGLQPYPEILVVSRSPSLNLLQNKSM
Method in brief: as §1

Row | Sequence | % activity
42 | FAKLAARLYRKALARQLGVAA [MMI-0300] | 97%
43 | HRRIKAWLKKIKALARQLGVAA (Mammal) [MMI-0500] | 30%
44 | KAFAKLAARLYRKALARQLGVAA [MMI-0400] | 98%
45 | YARAAARQARAKALNRQLGVA (Mammal) [MMI-0200] | 98%

target: T6, SAPK3(h) (Homo sapiens, UniProt P53778); experiment: Kinase Profiling Assay; assay type: biochemical; details: peptide 100 μM
T6 construct: purchased Millipore
T6 sequence (P53778 1-367): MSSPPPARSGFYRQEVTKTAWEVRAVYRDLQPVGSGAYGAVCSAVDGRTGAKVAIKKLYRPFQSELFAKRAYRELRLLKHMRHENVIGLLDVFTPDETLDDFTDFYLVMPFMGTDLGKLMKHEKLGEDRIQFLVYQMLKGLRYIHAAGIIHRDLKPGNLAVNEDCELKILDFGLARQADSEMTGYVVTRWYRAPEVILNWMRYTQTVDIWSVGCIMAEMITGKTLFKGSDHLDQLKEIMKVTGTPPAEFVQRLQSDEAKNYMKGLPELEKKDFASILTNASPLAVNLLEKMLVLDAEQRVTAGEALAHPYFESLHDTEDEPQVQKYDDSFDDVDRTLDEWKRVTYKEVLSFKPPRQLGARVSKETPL
Method in brief: as §1

Row | Sequence | % activity
46 | FAKLAARLYRKALARQLGVAA [MMI-0300] | 84%
47 | HRRIKAWLKKIKALARQLGVAA (Mammal) [MMI-0500] | 24%
48 | KAFAKLAARLYRKALARQLGVAA [MMI-0400] | 79%
49 | YARAAARQARAKALNRQLGVA (Mammal) [MMI-0200] | 97%

target: TLK2(h) (Homo sapiens, UniProt Q86UE8); experiment: Kinase Profiling Assay; assay type: biochemical; details: peptide 100 μM
Sequence (Q86UE8 whole entry): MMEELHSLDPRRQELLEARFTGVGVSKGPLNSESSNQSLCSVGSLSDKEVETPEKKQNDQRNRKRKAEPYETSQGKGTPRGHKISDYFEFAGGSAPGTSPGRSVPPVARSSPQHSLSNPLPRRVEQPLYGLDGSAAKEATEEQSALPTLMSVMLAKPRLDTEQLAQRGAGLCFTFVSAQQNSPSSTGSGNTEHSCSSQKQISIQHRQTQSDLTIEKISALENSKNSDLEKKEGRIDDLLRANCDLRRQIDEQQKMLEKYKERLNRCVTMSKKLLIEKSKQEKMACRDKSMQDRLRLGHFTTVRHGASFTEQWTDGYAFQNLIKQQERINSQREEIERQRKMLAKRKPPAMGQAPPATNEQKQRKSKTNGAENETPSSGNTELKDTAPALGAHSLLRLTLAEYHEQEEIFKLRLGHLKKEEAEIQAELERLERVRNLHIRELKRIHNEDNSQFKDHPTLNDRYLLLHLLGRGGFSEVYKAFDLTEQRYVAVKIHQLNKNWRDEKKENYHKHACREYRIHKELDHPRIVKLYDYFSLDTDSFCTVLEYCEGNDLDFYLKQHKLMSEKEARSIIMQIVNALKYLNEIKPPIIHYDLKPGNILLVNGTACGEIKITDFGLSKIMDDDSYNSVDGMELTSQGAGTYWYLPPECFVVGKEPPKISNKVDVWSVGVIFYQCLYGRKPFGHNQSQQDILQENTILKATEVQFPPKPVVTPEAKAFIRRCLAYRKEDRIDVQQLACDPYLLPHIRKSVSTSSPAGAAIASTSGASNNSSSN
Method in brief: as §1

Row | Sequence | % activity
50 | HRRIKAWLKKIKALARQLGVAA (Mammal) [MMI-0500] | 133%
51 | KAFAKLAARLYRKALARQLGVAA [MMI-0400] | 151%
52 | YARAAARQARAKALNRQLGVA (Mammal) [MMI-0200] | 129%

target: T7, mTOR(h) (Homo sapiens, UniProt P42345); experiment: Kinase Profiling Assay; assay type: biochemical; details: peptide 100 μM
T7 construct: purchased Millipore
Method in brief: as §1

Row | Sequence | % activity
53 | FAKLAARLYRKALARQLGVAA [MMI-0300] | 91%
54 | HRRIKAWLKKIKALARQLGVAA (Mammal) [MMI-0500] | 135%
55 | KAFAKLAARLYRKALARQLGVAA [MMI-0400] | 93%
56 | YARAAARQARAKALNRQLGVA (Mammal) [MMI-0200] | 110%
